# B1: slow skeletal troponin I switch peptide (ssTnI) (peptide)
# chain: RVSADAMLRALLGSKHK
# modifications: synthetic peptide; termini not stated. Limits not printed: taken as the ssTnI equivalent (offset -30) of the conventional cTnI switch peptide 147-163, because the paper compares it with the …
# Columns and labels:
# [1] = target: T1, recombinant human aCys-cNTnC (C35S, C84S double mutant), N-terminal regulatory domain of cardiac troponin C (human); experiment: NMR titration; ssTnI peptide titrated to 0.1-3 equivalents into 15N-labeled cNTnC·RPI-194 complex (115 µM, 1:1 protein and drug); 100 mM KCl, 10 mM imidazole, pH ~6.7, 30°C; 2D 1H,15N HSQC; KD from TITAN, two-state model; details: both partners purified
# T1 construct: human cardiac/slow skeletal troponin C, N-terminal regulatory domain (cNTnC); Uniformly 15N-labeled for NMR; also called cNTnC domain; isolated cNTnC domain; source: E. coli, expressed and purified as previously described (Cai et al., 2016), lyophilized; 15N-labeled
# [2] = target: T1, recombinant human aCys-cNTnC (C35S, …); experiment: NMR titration; ssTnI peptide (10 mM stock in d6-DMSO) titrated to 0.5-30 equivalents into 15N-labeled cNTnC (115 µM); 100 mM KCl, 10 mM imidazole, pH ~6.7, 30°C; 2D 1H,15N HSQC; KD from 2D lineshape analysis (TITAN), two-state model; no RPI-194; details: both partners purified
binder,measurement,setting,value
B1,Kd,[1],22 µM
same,Kd,[2],652 µM

# Reference: paper PMC9213791, “Small Molecule RPI-194 Stabilizes Activated Troponin to Increase the Calcium Sensitivity of Striated Muscle Contraction” (Frontiers in Physiology, 2022)
